Reference: publication PMC9482650, “Quantitative fragmentomics allow affinity mapping of interactomes” (Nature Communications, 2022)

Legend:
Test in all cases: holdup assay
Set-up in all cases: key: below the threshold = too weak to quantify, mostly under pKd 3.1 to 4
[1] = molecular target: MAGI2_2, Q86UL8
[2] = molecular target: TJP2_1, Q9UDY2
[3] = molecular target: T1, NHERF3_1, Q5T2W1
T1 sequence (Q5T2W1 4-100, limits assumed, looked up): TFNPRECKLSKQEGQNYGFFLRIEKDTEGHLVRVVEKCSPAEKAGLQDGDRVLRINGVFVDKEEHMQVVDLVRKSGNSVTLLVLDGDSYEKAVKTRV

[4] = molecular target: FRMPD2_3, Q68DX3
FRMPD2_3, Q68DX3, sequence (Q68DX3 1073-1166): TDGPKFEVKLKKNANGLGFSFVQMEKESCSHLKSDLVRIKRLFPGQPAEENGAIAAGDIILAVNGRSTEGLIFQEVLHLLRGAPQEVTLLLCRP

[5] = molecular target: GRID2IP_1, A4D2P6
GRID2IP_1, A4D2P6, sequence (A4D2P6 1-87): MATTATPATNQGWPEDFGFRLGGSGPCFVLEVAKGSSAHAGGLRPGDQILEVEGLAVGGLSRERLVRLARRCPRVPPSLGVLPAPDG

[6] = molecular target: T2, FRMPD1, Q5SYB0
T2 sequence (Q5SYB0 52-145, limits assumed, looked up): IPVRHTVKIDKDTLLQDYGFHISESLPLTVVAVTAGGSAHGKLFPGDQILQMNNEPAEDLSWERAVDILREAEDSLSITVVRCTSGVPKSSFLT

[7] = molecular target: T3, DLG3_1, Q92796
T3 sequence (Q92796 125-227, limits assumed, looked up): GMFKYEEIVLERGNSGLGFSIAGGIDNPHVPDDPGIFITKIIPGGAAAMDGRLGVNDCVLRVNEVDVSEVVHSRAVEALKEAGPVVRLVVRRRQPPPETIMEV

[8] = molecular target: T4, LIN7A, O14910
T4 sequence (O14910 103-200, limits assumed, looked up): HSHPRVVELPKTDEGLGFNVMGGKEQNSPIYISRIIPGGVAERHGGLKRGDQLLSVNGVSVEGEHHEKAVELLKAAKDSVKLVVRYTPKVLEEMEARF

[9] = molecular target: T5, RADIL, Q96JH8
T5 sequence (Q96JH8 971-1071, limits assumed, looked up): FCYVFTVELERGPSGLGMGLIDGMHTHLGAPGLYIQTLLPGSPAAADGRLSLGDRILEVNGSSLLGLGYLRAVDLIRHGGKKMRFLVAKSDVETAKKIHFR

[10] = molecular target: MAGI2_3, Q86UL8
MAGI2_3, Q86UL8, sequence (Q86UL8 600-682): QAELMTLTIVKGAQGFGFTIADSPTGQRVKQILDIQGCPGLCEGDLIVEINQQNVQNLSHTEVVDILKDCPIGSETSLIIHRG

[11] = molecular target: GRASP, Q7Z6J2
GRASP, Q7Z6J2, sequence (Q7Z6J2 96-193): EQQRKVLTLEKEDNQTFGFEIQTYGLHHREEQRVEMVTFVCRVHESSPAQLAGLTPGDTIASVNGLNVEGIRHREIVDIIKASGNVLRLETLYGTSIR

[12] = molecular target: CASK, O14936
CASK, O14936, sequence (O14936 487-570): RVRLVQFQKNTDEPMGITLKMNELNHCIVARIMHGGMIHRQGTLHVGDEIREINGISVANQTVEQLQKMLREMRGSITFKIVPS

[13] = molecular target: GRIP2_3, Q9C0E4
GRIP2_3, Q9C0E4, sequence (Q9C0E4 238-339): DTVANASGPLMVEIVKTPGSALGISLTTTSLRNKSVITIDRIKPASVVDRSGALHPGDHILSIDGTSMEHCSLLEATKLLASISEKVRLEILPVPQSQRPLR

[14] = molecular target: PDLIM1, O00151
PDLIM1, O00151, sequence (O00151 1-87): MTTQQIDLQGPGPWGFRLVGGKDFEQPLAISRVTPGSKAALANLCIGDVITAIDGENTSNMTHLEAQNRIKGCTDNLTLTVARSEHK

[15] = molecular target: MAGI1_1, Q96QZ7
MAGI1_1, Q96QZ7, sequence (Q96QZ7 1-106): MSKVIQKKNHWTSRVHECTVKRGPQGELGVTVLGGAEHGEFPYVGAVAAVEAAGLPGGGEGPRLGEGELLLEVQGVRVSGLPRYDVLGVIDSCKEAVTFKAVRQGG

[16] = molecular target: T6, MPDZ_10, O75970
T6 sequence (O75970 1624-1722, limits assumed, looked up): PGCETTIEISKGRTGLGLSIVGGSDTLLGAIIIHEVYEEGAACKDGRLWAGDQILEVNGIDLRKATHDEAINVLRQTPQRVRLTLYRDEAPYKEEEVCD

[17] = molecular target: DLG2_3, Q15700
[18] = molecular target: Inadl_1, Q8NI35
Inadl_1, Q8NI35, sequence (Q8NI35 113-229): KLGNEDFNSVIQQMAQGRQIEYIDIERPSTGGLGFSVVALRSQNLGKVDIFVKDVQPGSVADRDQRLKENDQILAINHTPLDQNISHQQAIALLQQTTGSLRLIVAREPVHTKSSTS

[19] = molecular target: Inadl_5, Q8NI35
Inadl_5, Q8NI35, sequence (Q8NI35 673-780): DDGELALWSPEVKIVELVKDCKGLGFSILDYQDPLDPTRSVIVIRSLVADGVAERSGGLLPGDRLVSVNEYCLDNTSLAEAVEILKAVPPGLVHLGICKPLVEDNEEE

[20] = molecular target: T7, DFNB31_1, Q9P202
T7 sequence (Q9P202 135-233, limits assumed, looked up): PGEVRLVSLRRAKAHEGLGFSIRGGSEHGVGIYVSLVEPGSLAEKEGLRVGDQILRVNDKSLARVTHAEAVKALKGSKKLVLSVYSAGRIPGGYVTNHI

[21] = molecular target: IL16_3, Q14005
IL16_3, Q14005, sequence (Q14005 1107-1207): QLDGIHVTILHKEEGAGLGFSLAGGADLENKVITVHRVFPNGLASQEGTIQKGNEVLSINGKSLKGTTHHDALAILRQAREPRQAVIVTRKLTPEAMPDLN

[22] = molecular target: SCRIB_2, Q14160
SCRIB_2, Q14160, sequence (Q14160 857-960): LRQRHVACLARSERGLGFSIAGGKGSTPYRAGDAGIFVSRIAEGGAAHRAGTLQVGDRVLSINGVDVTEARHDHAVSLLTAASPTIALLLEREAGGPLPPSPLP

[23] = molecular target: T8, DFNB31_2, Q9P202
T8 sequence (Q9P202 274-371, limits assumed, looked up): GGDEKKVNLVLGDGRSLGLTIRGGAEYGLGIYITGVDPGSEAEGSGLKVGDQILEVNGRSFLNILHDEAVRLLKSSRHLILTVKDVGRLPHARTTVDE

[24] = molecular target: Inadl_10, Q8NI35
Inadl_10, Q8NI35, sequence (Q8NI35 1673-1763): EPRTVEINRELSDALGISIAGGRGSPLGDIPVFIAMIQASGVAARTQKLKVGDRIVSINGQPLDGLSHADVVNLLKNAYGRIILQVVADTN

[25] = molecular target: T9, MPDZ_5, O75970
T9 sequence (O75970 695-796, limits assumed, looked up): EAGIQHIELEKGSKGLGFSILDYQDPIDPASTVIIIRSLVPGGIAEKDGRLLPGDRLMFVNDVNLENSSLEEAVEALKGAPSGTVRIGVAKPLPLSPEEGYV

[26] = molecular target: GIPC2, Q8TF65
GIPC2, Q8TF65, sequence (Q8TF65 112-203): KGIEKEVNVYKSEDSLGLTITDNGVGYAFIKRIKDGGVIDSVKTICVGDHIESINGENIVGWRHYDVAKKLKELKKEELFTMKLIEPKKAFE

[27] = molecular target: SCRIB_1, Q14160
SCRIB_1, Q14160, sequence (Q14160 718-814): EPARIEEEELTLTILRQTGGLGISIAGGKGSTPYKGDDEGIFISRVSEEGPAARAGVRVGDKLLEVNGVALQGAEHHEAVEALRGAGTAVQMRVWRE

[28] = molecular target: T10, PARD3B_1, Q8TEW8
T10 sequence (Q8TEW8 196-299, limits assumed, looked up): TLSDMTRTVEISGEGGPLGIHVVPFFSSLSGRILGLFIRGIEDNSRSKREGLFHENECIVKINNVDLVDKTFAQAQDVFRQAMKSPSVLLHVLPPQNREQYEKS

[29] = plain residues with an end cap or a label only (N-terminal biotin on a linker: ttds)
[30] = plain residues with an end cap or a label only (N-terminal biotin on a linker: ahx)

MAGI2_2, Q86UL8, sequence (Q86UL8 410-522): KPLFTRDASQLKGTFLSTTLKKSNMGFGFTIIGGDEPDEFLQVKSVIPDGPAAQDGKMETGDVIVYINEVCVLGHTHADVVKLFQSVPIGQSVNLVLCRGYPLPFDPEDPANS
TJP2_1, Q9UDY2, sequence (Q9UDY2 24-128): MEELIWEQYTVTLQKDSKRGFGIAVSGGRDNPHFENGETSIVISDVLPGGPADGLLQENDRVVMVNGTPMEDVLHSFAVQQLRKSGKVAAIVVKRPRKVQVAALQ

B1: PBK, Q96KB5 (peptide)
chain: HIVEALETDV
pKd [1, 29]: below the threshold | pKd [2, 29]: below the threshold | pKd [3, 29]: below the threshold | pKd [4, 29]: below the threshold | pKd [5, 29]: below the threshold | pKd [6, 29]: below the threshold | pKd [7, 29]: 4.67 | pKd [8, 29]: below the threshold | pKd [9, 29]: below the threshold | pKd [10, 29]: 3.93 | pKd [11, 29]: below the threshold | pKd [12, 29]: below the threshold | pKd [13, 29]: below the threshold | pKd [14, 29]: 3.91 | pKd [15, 29]: below the threshold | pKd [16, 29]: below the threshold | pKd [17, 29]: 3.7 | pKd [18, 29]: below the threshold | pKd [19, 29]: below the threshold | pKd [20, 29]: 4.03 | pKd [21, 29]: below the threshold | pKd [22, 29]: 5.32 | pKd [23, 29]: below the threshold | pKd [24, 29]: below the threshold | pKd [25, 29]: below the threshold | pKd [26, 29]: 4.55 | pKd [27, 29]: 5.32 | pKd [28, 29]: below the threshold

B2: CIT, O14578 (peptide)
chain: VNKVWDQSSV
pKd [1, 29]: below the threshold | pKd [2, 29]: below the threshold | pKd [3, 29]: below the threshold | pKd [4, 29]: below the threshold | pKd [5, 29]: below the threshold | pKd [6, 29]: below the threshold | pKd [7, 29]: below the threshold | pKd [8, 29]: below the threshold | pKd [9, 29]: below the threshold | pKd [10, 29]: below the threshold | pKd [11, 29]: 4.33 | pKd [12, 29]: below the threshold | pKd [13, 29]: below the threshold | pKd [14, 29]: below the threshold | pKd [15, 29]: below the threshold | pKd [16, 29]: below the threshold | pKd [17, 29]: 3.71 | pKd [18, 29]: below the threshold | pKd [19, 29]: below the threshold | pKd [20, 29]: 3.52 | pKd [21, 29]: below the threshold | pKd [22, 29]: 3.51 | pKd [23, 29]: below the threshold | pKd [24, 29]: below the threshold | pKd [25, 29]: below the threshold | pKd [26, 29]: 3.51 | pKd [27, 29]: 5.04 | pKd [28, 29]: below the threshold

B3: GRIN2B, Q13224 (peptide)
chain: EKLSSIESDV
pKd [1, 30]: below the threshold | pKd [2, 30]: below the threshold | pKd [3, 30]: below the threshold | pKd [4, 30]: below the threshold | pKd [5, 30]: below the threshold | pKd [6, 30]: below the threshold | pKd [7, 30]: 4.15 | pKd [8, 30]: below the threshold | pKd [9, 30]: below the threshold | pKd [10, 30]: below the threshold | pKd [11, 30]: below the threshold | pKd [12, 30]: below the threshold | pKd [13, 30]: below the threshold | pKd [14, 30]: 3.71 | pKd [15, 30]: below the threshold | pKd [16, 30]: 3.84 | pKd [17, 30]: 4.56 | pKd [18, 30]: below the threshold | pKd [19, 30]: below the threshold | pKd [20, 30]: below the threshold | pKd [21, 30]: 3.57 | pKd [22, 30]: 4.34 | pKd [23, 30]: below the threshold | pKd [24, 30]: below the threshold | pKd [25, 30]: below the threshold | pKd [26, 30]: 4.33 | pKd [27, 30]: 3.71 | pKd [28, 30]: below the threshold

B4: HTLV1-TAX1, P03409 (peptide)
chain: SEKHFRETEV
pKd [1, 29]: 4.57 | pKd [2, 29]: below the threshold | pKd [3, 29]: 4.71 | pKd [4, 29]: 3.77 | pKd [5, 29]: below the threshold | pKd [6, 29]: below the threshold | pKd [7, 29]: 4.58 | pKd [8, 29]: 3.82 | pKd [9, 29]: below the threshold | pKd [10, 29]: 4.3 | pKd [11, 29]: below the threshold | pKd [12, 29]: below the threshold | pKd [13, 29]: below the threshold | pKd [14, 29]: 3.69 | pKd [15, 29]: below the threshold | pKd [16, 29]: below the threshold | pKd [17, 29]: 5.36 | pKd [18, 29]: below the threshold | pKd [19, 29]: below the threshold | pKd [20, 29]: 3.96 | pKd [21, 29]: below the threshold | pKd [22, 29]: 5.76 | pKd [23, 29]: 3.71 | pKd [24, 29]: below the threshold | pKd [25, 29]: below the threshold | pKd [26, 29]: 3.82 | pKd [27, 29]: 5.63 | pKd [28, 29]: below the threshold
